In the supplement of paper PMC10065799, “High-throughput profiling of sequence recognition by tyrosine kinases and SH2 domains using bacterial peptide display” (eLife, 2023):

What was measured:
AncSZ = test: phosphorylation enrichment, bacterial display (enrichment ratio); higher = better substrate or ligand; peptides without Tyr show the background
EPHB1 = EPHB1 (UniProt P54762); test: as above
EPHB2 = EPHB2 (UniProt P29323); test: as above
FGFR1 = FGFR1 (UniProt P11362); test: as above
FGFR3 = FGFR3 (UniProt P22607); test: as above
FGFR3, sequence (P22607 whole entry, looked up): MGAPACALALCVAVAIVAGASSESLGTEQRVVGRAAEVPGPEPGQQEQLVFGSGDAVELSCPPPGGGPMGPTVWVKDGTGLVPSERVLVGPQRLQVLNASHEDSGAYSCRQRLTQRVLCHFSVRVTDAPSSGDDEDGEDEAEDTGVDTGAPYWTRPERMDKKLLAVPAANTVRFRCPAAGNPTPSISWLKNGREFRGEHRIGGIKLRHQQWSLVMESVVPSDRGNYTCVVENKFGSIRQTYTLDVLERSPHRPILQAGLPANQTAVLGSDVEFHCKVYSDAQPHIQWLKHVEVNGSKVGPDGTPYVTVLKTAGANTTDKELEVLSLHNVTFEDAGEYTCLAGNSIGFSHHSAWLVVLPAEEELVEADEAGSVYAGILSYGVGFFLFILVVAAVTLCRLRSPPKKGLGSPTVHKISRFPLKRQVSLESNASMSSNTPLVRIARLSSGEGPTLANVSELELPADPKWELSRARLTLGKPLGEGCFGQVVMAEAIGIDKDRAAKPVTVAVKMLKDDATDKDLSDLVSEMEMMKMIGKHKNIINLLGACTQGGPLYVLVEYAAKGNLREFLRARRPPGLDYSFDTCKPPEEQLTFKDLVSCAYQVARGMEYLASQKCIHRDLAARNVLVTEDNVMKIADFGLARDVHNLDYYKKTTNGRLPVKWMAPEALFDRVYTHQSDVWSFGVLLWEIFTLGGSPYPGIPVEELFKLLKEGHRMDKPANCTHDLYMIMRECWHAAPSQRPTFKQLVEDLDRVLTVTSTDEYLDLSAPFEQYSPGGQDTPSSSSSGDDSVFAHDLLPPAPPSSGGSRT

Fer (mouse) = test: as above
Fes = Fes (UniProt P07332); test: as above
Fyn = Fyn (UniProt P06241); test: as above
Fyn, sequence (P06241 whole entry, looked up): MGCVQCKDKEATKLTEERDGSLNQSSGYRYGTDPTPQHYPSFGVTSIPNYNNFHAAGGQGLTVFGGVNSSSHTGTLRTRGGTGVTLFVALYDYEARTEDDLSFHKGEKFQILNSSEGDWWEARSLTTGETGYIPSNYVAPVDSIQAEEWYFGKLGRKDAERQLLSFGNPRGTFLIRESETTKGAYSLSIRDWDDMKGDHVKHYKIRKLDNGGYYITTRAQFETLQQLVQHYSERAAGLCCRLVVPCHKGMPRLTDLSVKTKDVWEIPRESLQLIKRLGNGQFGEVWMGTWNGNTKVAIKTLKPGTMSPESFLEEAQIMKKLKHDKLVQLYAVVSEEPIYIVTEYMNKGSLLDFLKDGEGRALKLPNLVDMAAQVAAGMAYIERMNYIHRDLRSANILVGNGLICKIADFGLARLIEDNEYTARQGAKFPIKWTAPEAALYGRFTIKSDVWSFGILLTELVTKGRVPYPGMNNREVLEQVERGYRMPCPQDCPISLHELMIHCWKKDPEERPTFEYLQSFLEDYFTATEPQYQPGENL

Hck = Hck (UniProt P08631); test: as above
Hck, sequence (P08631 whole entry, looked up): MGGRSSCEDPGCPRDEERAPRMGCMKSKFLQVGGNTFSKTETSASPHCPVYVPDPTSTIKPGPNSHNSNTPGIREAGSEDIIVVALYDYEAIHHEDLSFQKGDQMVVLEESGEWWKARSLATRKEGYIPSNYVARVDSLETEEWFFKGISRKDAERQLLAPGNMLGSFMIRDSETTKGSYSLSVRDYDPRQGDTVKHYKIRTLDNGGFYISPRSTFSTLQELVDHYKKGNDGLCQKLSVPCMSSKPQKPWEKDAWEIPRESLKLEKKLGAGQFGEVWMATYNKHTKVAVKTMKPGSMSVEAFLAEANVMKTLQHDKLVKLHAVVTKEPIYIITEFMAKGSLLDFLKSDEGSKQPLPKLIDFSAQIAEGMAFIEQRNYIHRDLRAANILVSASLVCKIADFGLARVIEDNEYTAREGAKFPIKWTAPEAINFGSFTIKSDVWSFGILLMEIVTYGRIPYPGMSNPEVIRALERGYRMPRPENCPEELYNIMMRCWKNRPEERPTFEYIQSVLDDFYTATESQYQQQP

Jak2 = Jak2 (UniProt O60674); test: as above
Jak2, sequence (O60674 whole entry, looked up): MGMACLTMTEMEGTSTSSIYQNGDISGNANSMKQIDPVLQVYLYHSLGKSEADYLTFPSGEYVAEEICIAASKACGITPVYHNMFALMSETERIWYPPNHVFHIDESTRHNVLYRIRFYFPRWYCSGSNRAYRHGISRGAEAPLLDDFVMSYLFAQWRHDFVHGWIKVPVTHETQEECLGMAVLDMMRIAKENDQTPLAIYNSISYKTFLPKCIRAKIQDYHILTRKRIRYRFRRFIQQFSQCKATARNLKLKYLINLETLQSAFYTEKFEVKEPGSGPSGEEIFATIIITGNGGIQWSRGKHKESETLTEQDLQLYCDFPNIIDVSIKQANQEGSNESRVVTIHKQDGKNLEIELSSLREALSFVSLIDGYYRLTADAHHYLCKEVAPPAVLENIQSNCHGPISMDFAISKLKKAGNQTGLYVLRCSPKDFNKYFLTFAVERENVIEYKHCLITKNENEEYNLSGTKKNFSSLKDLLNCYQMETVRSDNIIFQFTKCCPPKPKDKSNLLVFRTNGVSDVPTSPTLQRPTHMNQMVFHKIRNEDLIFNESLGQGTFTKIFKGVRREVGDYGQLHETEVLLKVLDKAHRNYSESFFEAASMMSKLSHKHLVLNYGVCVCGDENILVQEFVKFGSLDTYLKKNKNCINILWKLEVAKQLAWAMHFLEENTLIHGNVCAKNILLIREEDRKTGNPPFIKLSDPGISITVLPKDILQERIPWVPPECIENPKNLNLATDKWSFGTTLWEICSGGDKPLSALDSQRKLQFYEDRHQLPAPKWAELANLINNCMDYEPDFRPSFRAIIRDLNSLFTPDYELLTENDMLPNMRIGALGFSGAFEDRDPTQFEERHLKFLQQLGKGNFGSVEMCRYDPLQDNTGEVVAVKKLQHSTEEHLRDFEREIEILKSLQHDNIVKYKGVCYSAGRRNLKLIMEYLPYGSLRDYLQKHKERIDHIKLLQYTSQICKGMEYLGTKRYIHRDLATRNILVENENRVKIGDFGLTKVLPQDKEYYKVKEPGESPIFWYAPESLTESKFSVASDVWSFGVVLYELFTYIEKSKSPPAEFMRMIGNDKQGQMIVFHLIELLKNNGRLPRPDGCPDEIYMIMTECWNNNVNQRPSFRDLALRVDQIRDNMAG

MERTK = MERTK (UniProt Q12866); test: as above
c-Abl (mouse) = test: as above
c-Src = test: as above
Grb2 SH2 = Grb2 SH2 (UniProt P62993); test: SH2 binding enrichment of the phosphorylated peptide, bacterial display (enrichment ratio); higher = better substrate or ligand; peptides without Tyr show the background
SHP2-C SH2 = test: as above
c-Src SH2 = test: as above
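Wherever SH2 binding enrichment of the phosphorylated peptide, bacterial display is given: peptide library displayed on the E. coli surface as eCPX fusions, selected cells deep-sequenced, score is each peptide's frequency after selection divided by its frequency in the input.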
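Wherever phosphorylation enrichment, bacterial display is given: 11-residue human phosphosite peptides and single-mutation variants displayed on the E. coli surface, counted by deep sequencing, each peptide's frequency after selection divided by its frequency in the unselected input library; frequency after pTyr selection over input frequency; kinase dosed for 20-30% of maximal phosphorylation in three min.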

EPHB2, sequence (P29323 whole entry, looked up): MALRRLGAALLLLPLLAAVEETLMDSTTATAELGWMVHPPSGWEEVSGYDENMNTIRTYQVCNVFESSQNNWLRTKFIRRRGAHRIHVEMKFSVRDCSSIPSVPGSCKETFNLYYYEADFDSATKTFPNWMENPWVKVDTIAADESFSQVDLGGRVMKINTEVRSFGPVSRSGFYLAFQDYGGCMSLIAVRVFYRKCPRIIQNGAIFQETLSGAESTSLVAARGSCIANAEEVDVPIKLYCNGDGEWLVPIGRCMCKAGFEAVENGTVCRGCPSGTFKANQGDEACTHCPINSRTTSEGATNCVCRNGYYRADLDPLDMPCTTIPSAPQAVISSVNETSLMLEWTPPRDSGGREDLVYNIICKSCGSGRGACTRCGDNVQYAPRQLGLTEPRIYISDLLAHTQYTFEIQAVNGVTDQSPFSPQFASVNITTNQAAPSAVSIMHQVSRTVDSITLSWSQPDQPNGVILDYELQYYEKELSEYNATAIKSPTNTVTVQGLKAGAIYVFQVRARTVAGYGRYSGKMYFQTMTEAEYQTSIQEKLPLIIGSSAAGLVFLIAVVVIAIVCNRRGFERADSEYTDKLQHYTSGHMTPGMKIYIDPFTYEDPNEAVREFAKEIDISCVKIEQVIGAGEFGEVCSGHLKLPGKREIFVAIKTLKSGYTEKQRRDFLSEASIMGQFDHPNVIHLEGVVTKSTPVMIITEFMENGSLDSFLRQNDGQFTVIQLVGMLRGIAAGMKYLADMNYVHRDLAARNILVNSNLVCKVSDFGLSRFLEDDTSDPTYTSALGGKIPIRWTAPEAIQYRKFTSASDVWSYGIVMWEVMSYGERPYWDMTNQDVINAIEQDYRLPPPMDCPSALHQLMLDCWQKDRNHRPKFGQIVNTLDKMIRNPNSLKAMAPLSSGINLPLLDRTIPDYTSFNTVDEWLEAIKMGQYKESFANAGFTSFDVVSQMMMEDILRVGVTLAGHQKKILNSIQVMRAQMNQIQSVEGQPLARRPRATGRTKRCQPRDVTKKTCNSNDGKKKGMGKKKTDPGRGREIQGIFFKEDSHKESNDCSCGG
EPHB1, sequence (P54762 whole entry, looked up): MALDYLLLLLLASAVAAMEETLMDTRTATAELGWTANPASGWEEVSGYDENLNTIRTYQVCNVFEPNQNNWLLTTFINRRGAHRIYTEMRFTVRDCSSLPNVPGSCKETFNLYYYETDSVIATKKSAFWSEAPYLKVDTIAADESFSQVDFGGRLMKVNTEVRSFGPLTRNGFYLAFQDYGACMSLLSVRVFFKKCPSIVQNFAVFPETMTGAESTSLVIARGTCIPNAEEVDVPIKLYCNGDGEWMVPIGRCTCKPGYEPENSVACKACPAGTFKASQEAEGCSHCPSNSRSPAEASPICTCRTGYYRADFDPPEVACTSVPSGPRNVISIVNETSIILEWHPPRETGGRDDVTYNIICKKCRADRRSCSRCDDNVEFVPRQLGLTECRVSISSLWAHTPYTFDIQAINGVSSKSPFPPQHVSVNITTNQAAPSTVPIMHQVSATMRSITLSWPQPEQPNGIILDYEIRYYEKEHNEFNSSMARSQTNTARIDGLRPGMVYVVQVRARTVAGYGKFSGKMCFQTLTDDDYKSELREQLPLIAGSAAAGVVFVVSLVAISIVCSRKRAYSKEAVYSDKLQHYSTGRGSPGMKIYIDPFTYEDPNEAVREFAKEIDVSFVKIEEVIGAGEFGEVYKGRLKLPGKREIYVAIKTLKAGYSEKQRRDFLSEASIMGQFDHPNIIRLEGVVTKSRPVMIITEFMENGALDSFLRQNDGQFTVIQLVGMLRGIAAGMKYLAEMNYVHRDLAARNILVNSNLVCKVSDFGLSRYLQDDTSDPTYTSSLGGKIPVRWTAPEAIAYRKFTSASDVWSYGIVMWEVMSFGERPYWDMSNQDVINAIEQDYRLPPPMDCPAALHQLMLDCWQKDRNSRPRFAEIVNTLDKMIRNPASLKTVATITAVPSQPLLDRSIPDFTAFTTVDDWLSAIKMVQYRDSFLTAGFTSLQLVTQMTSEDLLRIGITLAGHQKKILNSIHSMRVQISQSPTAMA

Row | Sequence | SH2 binding enrichment (Grb2 SH2) | SH2 binding enrichment (SHP2-C SH2) | SH2 binding enrichment (c-Src SH2) | phosphorylation enrichment (AncSZ) | phosphorylation enrichment (EPHB1) | phosphorylation enrichment (EPHB2) | phosphorylation enrichment (FGFR1) | phosphorylation enrichment (FGFR3) | phosphorylation enrichment (Fer (mouse)) | phosphorylation enrichment (Fes) | phosphorylation enrichment (Fyn) | phosphorylation enrichment (Hck) | phosphorylation enrichment (Jak2) | phosphorylation enrichment (MERTK) | phosphorylation enrichment (c-Abl (mouse)) | phosphorylation enrichment (c-Src)
1 | ETGEPYRLSPE [EIF4G1_Y311] | 0.883 | 0.75 | 0.572 | 1.19 | 0.733 | 0.68 | 0.58 | 0.783 | 0.635 | 1.15 | 0.505 | 0.631 | 1 | 0.503 | 0.893 | 0.527
2 | EVDELYREAPI [MYL12B_Y143] | 0.867 | 0.719 | 0.475 | 1.27 | 0.784 | 0.654 | 0.86 | 1.11 | 0.62 | 1.39 | 0.654 | 0.705 | 1.29 | 0.598 | 0.962 | 0.52
3 | EYGFRYELVQY [UGGT2_Y1289] | 0.768 | 0.787 | 2.15 | 1.83 | 0.986 | 0.879 | 0.872 | 1.17 | 3.36 | 1.65 | 0.558 | 0.674 | 1.62 | 0.631 | 0.932 | 0.584
4 | FADGVYQALEE [DUOX2_Y70_YF] | 1.15 | 0.882 | 0.75 | 1.49 | 1.97 | 1.5 | 0.696 | 0.666 | 1.1 | 1.3 | 3.65 | 3.3 | 0.979 | 1.38 | 0.749 | 3.81
5 | FADIAYNFRHR [PAH_Y166_G171R_YF] | 0.888 | 0.872 | 0.547 | 0.577 | 0.343 | 0.425 | 0.317 | 0.44 | 0.348 | 0.652 | 0.407 | 0.374 | 0.487 | 0.405 | 0.537 | 0.415
6 | FETDFYRKGGK [INSR_Y1190_YF] | 0.875 | 0.776 | 0.502 | 0.629 | 0.621 | 0.639 | 0.435 | 0.472 | 0.319 | 0.758 | 0.381 | 0.418 | 0.6 | 0.468 | 0.539 | 0.482
7 | FFCRWYRNRKS [EREG_Y144_YF] | 0.705 | 0.858 | 0.516 | 0.442 | 0.421 | 0.514 | 0.463 | 0.409 | 0.312 | 0.453 | 0.563 | 0.326 | 0.433 | 0.433 | 0.421 | 0.51
8 | FGAHNYHPLPV [OAT_Y55_YF] | 0.817 | 0.493 | 0.893 | 1.64 | 0.573 | 0.677 | 6.41 | 3.33 | 0.35 | 0.535 | 0.468 | 0.606 | 0.58 | 1.04 | 0.562 | 0.538
9 | FGCTFYNQAIM [MCCC2_Y196_R193C] | 0.685 | 0.608 | 0.534 | 1.4 | 0.825 | 0.777 | 0.529 | 1.04 | 0.647 | 1.54 | 0.472 | 0.597 | 1.32 | 0.365 | 0.968 | 0.47
10 | FGVVGYLAIMF [RNF175_Y155] | 1.11 | 0.872 | 0.653 | 1.04 | 0.795 | 0.579 | 0.474 | 0.819 | 0.484 | 1.44 | 0.519 | 0.655 | 1.45 | 0.532 | 1.37 | 0.443
11 | FISVGYVDDTL [HLA-B_Y51_Q56L] | 1.05 | 0.896 | 0.728 | 1.12 | 0.738 | 0.736 | 0.572 | 0.801 | 0.652 | 1.21 | 0.486 | 0.485 | 1.03 | 0.436 | 0.772 | 0.557
12 | FPKDVYVDSKD [NDUFAF4_Y69_L65P] | 1.13 | 0.821 | 0.542 | 0.868 | 0.38 | 0.36 | 0.588 | 0.59 | 0.367 | 0.839 | 0.409 | 0.444 | 0.769 | 0.377 | 0.543 | 0.416
13 | FQASFYRRGDR [LTK_Y677_R673Q_YF] | 0.411 | 0.38 | 0.295 | 0.717 | 0.443 | 0.486 | 0.532 | 0.523 | 0.495 | 0.688 | 0.55 | 0.501 | 0.441 | 0.511 | 0.647 | 0.525
14 | FRPHLYGTPSR [ADGRE2_Y670_S665F] | 1.98 | 1.65 | 1.77 | 0.682 | 0.481 | 0.458 | 0.747 | 0.511 | 0.945 | 0.842 | 0.546 | 0.948 | 0.611 | 0.513 | 0.718 | 0.572
15 | FRSSLYSLMET [MYO5C_Y633_L634S] | 0.672 | 0.564 | 1.24 | 1.12 | 4.17 | 1.84 | 0.898 | 0.947 | 9.51 | 1.16 | 4.25 | 4.03 | 0.77 | 12.4 | 0.629 | 4.03
16 | FSPPFYHRNCM [HGD_Y334_R330S_YF] | 0.981 | 0.818 | 0.633 | 0.931 | 0.483 | 0.545 | 0.513 | 0.632 | 0.465 | 0.89 | 0.377 | 0.457 | 0.971 | 0.535 | 0.767 | 0.623
17 | FTHSDYQFGQR [PKP2_Y166_S169G_YF] | 1 | 1.05 | 0.626 | 0.697 | 0.389 | 0.471 | 0.465 | 0.474 | 0.453 | 0.687 | 0.443 | 0.518 | 0.583 | 0.469 | 0.553 | 0.457

Second part, led by results:

Row | SH2 binding enrichment (Grb2 SH2) | SH2 binding enrichment (SHP2-C SH2) | SH2 binding enrichment (c-Src SH2) | Sequence | phosphorylation enrichment (AncSZ) | phosphorylation enrichment (EPHB1) | phosphorylation enrichment (EPHB2) | phosphorylation enrichment (FGFR1) | phosphorylation enrichment (FGFR3) | phosphorylation enrichment (Fer (mouse)) | phosphorylation enrichment (Fes) | phosphorylation enrichment (Fyn) | phosphorylation enrichment (Hck) | phosphorylation enrichment (Jak2) | phosphorylation enrichment (MERTK) | phosphorylation enrichment (c-Abl (mouse)) | phosphorylation enrichment (c-Src)
18 | 0.829 | 0.666 | 0.561 | EWKQNYEESQS [MYH7_Y1460_K1459N] | 1.16 | 0.542 | 0.664 | 0.546 | 0.692 | 0.792 | 1.25 | 0.481 | 0.605 | 1.32 | 0.497 | 0.967 | 0.461
19 | 0.918 | 0.816 | 0.538 | FAELMYTGFWH [ASS1_Y322_V321M] | 2.17 | 3.52 | 4.76 | 2.32 | 2.02 | 5.42 | 1.67 | 6.85 | 4.7 | 2.02 | 7.12 | 3.16 | 6.43
20 | 0.742 | 0.383 | 0.437 | FARNCYVAGQF [G6PD_Y107_S106C_YF] | 0.983 | 0.505 | 0.487 | 0.461 | 0.553 | 0.417 | 0.938 | 0.387 | 0.409 | 0.743 | 0.363 | 0.714 | 0.507
21 | 1.03 | 0.853 | 0.485 | FCRITYDIFPF [INTS13_Y67_M66T_YF] | 1.66 | 2.38 | 3.05 | 0.514 | 1.05 | 0.594 | 1.6 | 1.31 | 2.62 | 1.29 | 2.2 | 1.12 | 2.36
22 | 0.939 | 0.939 | 0.626 | FDDIAYIQKTL [PIK3CA_Y1021_R1023Q] | 0.832 | 0.425 | 0.68 | 0.503 | 0.6 | 0.352 | 0.819 | 0.479 | 0.488 | 0.952 | 0.529 | 0.591 | 0.485
23 | 0.567 | 0.426 | 0.423 | FGEFRYRSVIK [CFTR_Y517_D513G_YF] | 0.728 | 0.558 | 0.559 | 0.44 | 0.541 | 0.396 | 0.891 | 0.409 | 0.565 | 0.744 | 0.409 | 0.574 | 0.426
24 | 2.83 | 1.34 | 1.22 | FGMQLYQNFMH [GRB14_Y347_YF] | 1.06 | 3.53 | 2.41 | 0.544 | 0.772 | 5.17 | 1.04 | 2.84 | 3.03 | 0.971 | 2.89 | 0.777 | 3.67
25 | 1.11 | 1.57 | 1.34 | FHLLPYTVRAM [PARS2_Y93_YF] | 0.8 | 0.581 | 0.633 | 0.564 | 0.551 | 0.514 | 0.971 | 0.446 | 0.501 | 0.691 | 0.438 | 0.546 | 0.711
26 | 0.878 | 0.662 | 0.474 | FKDYFYCWNTF [AICDA_Y146] | 2.04 | 4.05 | 2.87 | 8.79 | 7.02 | 1.46 | 1.34 | 0.652 | 0.557 | 3.71 | 2.8 | 1.22 | 1.41
27 | 0.984 | 0.698 | 0.458 | FLRKEYGGVNV [CBR3_Y81_L84V] | 0.644 | 0.391 | 0.4 | 0.416 | 0.495 | 0.475 | 0.916 | 0.452 | 0.425 | 0.598 | 0.471 | 0.612 | 0.578
28 | 1.01 | 0.953 | 2.06 | FNNPAYFVLEG [INPPL1_Y986_YF] | 1.25 | 0.621 | 0.588 | 7.65 | 5.18 | 0.501 | 1.09 | 0.679 | 0.578 | 4.57 | 3.7 | 0.816 | 0.875
29 | 0.759 | 0.4 | 0.464 | FPRAWCRRSIA [KIAA1109_Y4272_Y4272C] | 0.908 | 0.519 | 0.484 | 0.48 | 0.441 | 0.455 | 0.686 | 0.557 | 0.466 | 0.588 | 0.562 | 0.641 | 0.523
30 | 0.911 | 0.787 | 0.565 | FRDMDYRSFPH [RBM10_Y41_R46H_YF] | 0.55 | 0.442 | 0.388 | 0.577 | 0.449 | 0.407 | 0.698 | 0.419 | 0.314 | 0.667 | 0.385 | 0.549 | 0.436
31 | 1.17 | 1.27 | 0.56 | FSGIFYKPESL [L2HGDH_Y103_H98Y_YF] | 0.968 | 0.5 | 0.5 | 0.436 | 0.673 | 0.471 | 1.03 | 0.438 | 0.393 | 0.935 | 0.431 | 0.81 | 0.611
32 | 0.675 | 0.472 | 0.244 | FSGQVYRQRRK [TH_Y230_D227G] | 0.855 | 0.604 | 0.772 | 0.546 | 0.64 | 0.582 | 0.697 | 0.774 | 0.718 | 0.769 | 1 | 0.789 | 1.13
33 | 0.756 | 0.723 | 2.61 | FTNRSYDLDFD [MYC_Y12_N11S_YF] | 0.978 | 0.505 | 0.58 | 0.685 | 0.708 | 0.476 | 1.13 | 0.55 | 0.64 | 0.922 | 0.422 | 0.77 | 0.499
